Experimental findings from US20070042345 are described below.

The series relates to F2C intracellular calcium ion indicator protein (GAP43 palmitoylation signal - ECFP - two alpha-spectrin calpain sensitive sequences - EYFP).

Regarding “purified µ-calpain (Calpain I, Calbiochem, California, U.S.A.)”, the “Western blot for fragmented F2C after incubation with purified µ-calpain in Ca-EGTA buffer” value is reported as “fragmented F2C signal was not detected (data not shown)”.
